PMC4963926 (Journal of Translational Medicine, 2016)

B1: HPV16 His6-E6 protein (natural protein)
chain: MHQKRTAMFQDPQERPRKLPQLCTELQTTIHDIILECVYCKQQLLRREVYDFAFRDLCIVYRDGNPYAVCDKCLKFYSKISEYRHYCYSLYGTTLEQQYNKPLCDLLIRCINCQKPLCPEEKQRHLDKKQRFHNIRGRWTGRCMSCCRSSRTRRETQL
notes: also called HR-HPV16 His6-E6; HPV16 E6
B2: HPV11 His6-E6 protein (natural protein)
chain: MESKDASTSATSIDQLCKTFNLSLHTLQIQCVFCRNALTTAEIYAYAYKNLKVVWRDNFPFAACACCLELQGKINQYRHFNYAAYAPTVEEETNEDILKVLIRCYLCHKPLCEIEKLKHILGKARFIKLNNQWKGRCLHCWTTCMEDLLP

Target: the molecule itself
Experiment: SDS-PAGE and immunoblotting of the purified protein

Protein	binding result
B1	binds
B2	binds
